Test results from paper PMC12311110.
pKd: −log10 of the molar value. One block for each substance: values may come before it.

Tests used:
[1] = biological target: hRetromer (recombinant Retromer trimer) (human) (UniProt Q96QK1); test: ITC; Microcal PEAQ-ITC, 25 °C; 1 mM peptide or 530 µM TBC1D13 titrated into 14 µM Retromer; single-site model; mean of triplicate titrations
endogenous VPS26 = endogenous VPS26 (UniProt O75436); test: GFP-based co-IP, western blot band quantification; details: HEK293T cells, transient transfection; normalised to GFP band intensity; n = 3; parent: est. 100; read off a plot

Sequence of recombinant full-length human TBC1D13 (Q9NVG8 whole entry): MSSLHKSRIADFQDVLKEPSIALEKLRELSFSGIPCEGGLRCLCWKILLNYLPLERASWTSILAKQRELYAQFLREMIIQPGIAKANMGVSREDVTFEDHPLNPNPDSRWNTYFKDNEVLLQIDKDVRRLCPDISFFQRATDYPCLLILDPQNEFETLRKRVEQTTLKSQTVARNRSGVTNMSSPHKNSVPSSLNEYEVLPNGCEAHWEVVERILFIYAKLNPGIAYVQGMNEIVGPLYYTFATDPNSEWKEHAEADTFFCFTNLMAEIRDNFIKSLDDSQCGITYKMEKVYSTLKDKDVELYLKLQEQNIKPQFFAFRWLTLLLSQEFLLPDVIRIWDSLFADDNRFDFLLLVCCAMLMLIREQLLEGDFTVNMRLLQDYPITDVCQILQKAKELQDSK

percent of parent (relative intensity (WT = 100)) (endogenous VPS26): 110
Substance: GFP-VPS29 wild-type (from UniProt Q9UBQ0) L152E

percent of parent (relative intensity (WT = 100)) (endogenous VPS26): 170
Substance: GFP-VPS29 wild-type (from UniProt Q9UBQ0) V174D

The remaining lines, values behind:

Substance: human DENND4C peptide 1189-1206
pKd [1]: 4.81
dH [1]: -10.1 kcal/mol

Substance: recombinant full-length human TBC1D13 (from UniProt Q9NVG8 1-400) (natural protein)
pKd [1]: 5.20
dH [1]: -8.1 kcal/mol

Substance: VPS35-GFP WT (from UniProt Q96QK1) I218D
percent of parent (relative intensity (WT = 100)) (endogenous VPS26): 120
